In the nanobody polyreactivity screen of Harvey et al. (2022):

Assay: yeast display, Sf9 membrane polyspecificity reagent, FACS + sequencing; frameworks hold sequencing errors
How it was run: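 Genes from sorted yeast were amplified by colony PCR, read by MiSeq 2 × 250 sequencing and filtered on CDR length. These cells carried a synthetic nanobody library in Saccharomyces cerevisiae BJ5465 and were sorted by FACS into low and high (top ~1%) gates on anti-HA and streptavidin fluorescence. Polyreactivity is labelled according to the gate of origin.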

With “QVQLVESGGGLVQAGGSLRLSCAASGSTFSYYAMGWYRQAPGKERELVAAITTSGGRTYYADSVKGRFTISRDNAKFTVYLQMNSLKPEDTAVYYCNARSGRLGDYWGQGTQVTVSS” the “polyreactivity (PSR sort gate)” value was “high polyreactivity”.

For “QVQLVESGGGLVQAGGSLRLSCAASGSTFSYYAMGWYRQAPGKERELVAVISWSGGSTYYADSVKGRFTISRDNAKNTVYLQMNSLKPEDTAVYYCAARGYVRWYNRYDYWGQGTQVTVSS”, the “polyreactivity (PSR sort gate)” value was “low polyreactivity”.

With “QVQLVESGGGLVQAGGSLRLSCAASGSTFSYYTMGWYRPAPGKERELVAAITRRGDSTYADSVKGRFTISRDNAKNTGYLQMNSLKPEATAVYYCAADASVGVSGMDYWGQGTQVTVSS” the “polyreactivity (PSR sort gate)” value was “low polyreactivity”.

In the case of “QVQLVESGGGLVQAGGSLRLSCAASGSTFTAKAMGWYRQAPGKERELVASISARDGSTYADSVKGRFTISRDNAKNTVYLQMNSLKPEDTAVYYCNAAYFHIFPYDYDYWGQGTQVTVSS”, the “polyreactivity (PSR sort gate)” value is reported as “low polyreactivity”.

With “QVQLVESGGGLVQAGGSLRLSCAASGSTFTANAMGWYRQAPWKERELVASISAREGSTYADSVKGRFTISRDNANNTVYLQMNSLKPEDTAVYYCNAAYFHIFPYDYDYWGQCTQVTVSS” the “polyreactivity (PSR sort gate)” value was “low polyreactivity”.

In the case of “QVQLVESGGGLVQAGGSLRLSCAASGSTFTAYAMGWYRQAPGKERELVAAISKRSGGTYYADSVKGRFTISRDNAKNTVYLQMNSLKPEDTAVYYCGQGTQVTVSS”, the “polyreactivity (PSR sort gate)” value is reported as “low polyreactivity”.

For “QVQLVESGGGLVQAGGSLRLSCAASGSTFTAYAMGWYRQAPGKERELVAVITSGGGTFYADSVKGRFTISRDNAKNTVYLQMNSLKPEDTAVYYCNAARTYPGTYIYRYGYWGQGTQVTVSP”, the “polyreactivity (PSR sort gate)” value was “high polyreactivity”.

In the case of “QVQLVESGGGLVQAGGSLRLSCAASGSTFTFNAMGWYRQAPGKERELVAAITSRGGSTYYADSVKGRFTISRDNAKNTVYLQMNSLKPEDTAVYYCAATLRGQKTRREYWGQGTQVTVSS”, the “polyreactivity (PSR sort gate)” value is reported as “high polyreactivity”.

For “QVQLVESGGGLVQAGGSLRLSCAASGSTFTGNAMGWSRQAPGKERELVAAITDRGGSTYADSVKGRFTISRDNAKNTVYLQMNSLKPEDSAVYYCATRRDLHDRYEYDYWGQGTQVTVSS”, the “polyreactivity (PSR sort gate)” value was “low polyreactivity”.

For “QVQLVESGGGLVQAGGSLRLSCAASGSTFTGNAMGWYRQAPGKERELVAAISRSGGSTFYADSVKGRFTISRDNAKNTVYLQINSLKPEDTAVYYCAAPVYLYGTVGRGDYWGQGTQVTVSS”, the “polyreactivity (PSR sort gate)” value was “high polyreactivity”.

With “QVQLVESGGGLVQAGGSLRLSCAASGSTFTGNAMGWYRQAPGKERELVAAITKGGSRTYYADSVKGRFTISRDNAKNTVYLQMNSLKPEDTAVYYCAATSRGTDYWGQGTQVTVSS” the “polyreactivity (PSR sort gate)” value was “high polyreactivity”.

For “QVQLVESGGGLVQAGGSLRLSCAASGSTFTGNVMGWYRQAPGKERELVAAIRDSGGSTYYADSVKGRFTISRDNAKNTVYLQMNSLKPEDTAVYYCDAEYLYGSYYGYYYWGQGTQVTVSS”, the “polyreactivity (PSR sort gate)” value was “low polyreactivity”.

In the case of “QVQLVESGGGLVQAGGSLRLSCAASGSTFTGYAMGWYRQAPGKERELVAGITGSGGSTYYADSVKGRFTISRDNATNTVYLQMNSLKPEDTAVFYCAAAFWYQYVWLDYYWGQGTQVTVSS”, the “polyreactivity (PSR sort gate)” value is reported as “low polyreactivity”.

With “QVQLVESGGGLVQAGGSLRLSCAASGSTFTHYAMGWYIQAPWKERELVAGISWGGSSTYYADSVKGRFTISRDNAKNTVYLQMNSLKPEDTAVYYCAAGRRGSYPGGYGYWGQGTQVTVSS” the “polyreactivity (PSR sort gate)” value was “low polyreactivity”.

With “QVQLVESGGGLVQAGGSLRLSCAASGSTFTHYAMGWYRQAPGKERELVAAITSSGGSTYYADSVKGRFTISRDNAKNTDYLQMNSLKPVDTAVYYCAARGSYRNRYRHDYWGQGTQVTVSS” the “polyreactivity (PSR sort gate)” value was “high polyreactivity”.

In the case of “QVQLVESGGGLVQAGGSLRLSCAASGSTFTHYVMGWYRQEPGKQREIVAAISDSGSTYYADSVKGRFTISRDNAKNTVYLQMNSLNPEDTAVYYCNADDVDFYYGYGYLYYDYWGQGTQVTVSS”, the “polyreactivity (PSR sort gate)” value is reported as “low polyreactivity”.

With “QVQLVESGGGLVQAGGSLRLSCAASGSTFTINAMGWYRQAPGKERELVAAISWSDVDTYYADSVKGRFTISGDTAKNTVYLQMNSLKPEDTAVYYCSAQFSYRYYTDEVGYLGQGTQVTVSS” the “polyreactivity (PSR sort gate)” value was “high polyreactivity”.

In the case of “QVQLVESGGGLVQAGGSLRLSCAASGSTFTIYAMGWYRQAPGKEREFVAAIDEDDGSTYYADSVKGRFTISRDNAKNTVYLQMNSLKPEDTAVYYCNADDIWGYAFDYWGQGTQVTVSS”, the “polyreactivity (PSR sort gate)” value is reported as “low polyreactivity”.

With “QVQLVESGGGLVQAGGSLRLSCAASGSTFTLNAMGWYRQAPGKERELVADISWSSGRTYYADSVKGRFTISRDTEKNTVYLQMNSLKPEDTAVYYCATDDLSIVKFYAYYPEFDYWGQGTQVTVSS” the “polyreactivity (PSR sort gate)” value was “low polyreactivity”.

For “QVQLVESGGGLVQAGGSLRLSCAASGSTFTLYAMGWYRQAPGKERELVATIDWSGGSTYYADSVKGRFTISRDNAKNTVYLQMNSLKPEDTAVYYCAADSYVVFYRGYTFIAVHSYEYWGQGTQVTVSS”, the “polyreactivity (PSR sort gate)” value was “low polyreactivity”.

In the case of “QVQLVESGGGLVQAGGSLRLSCAASGSTFTNYAMGWYRQAPGKEREFVAAITFRGGRTYYADSVKGRFTISRDNAKNTVYLQMNSLKPEDTAVYYCNKRTSPKRFDYWGQGTQVTVSS”, the “polyreactivity (PSR sort gate)” value is reported as “high polyreactivity”.

For “QVQLVESGGGLVQAGGSLRLSCAASGSTFTNYAMGWYRQAPGKERELVAAINSGGSTHYADSVKGRFTISRDNAKNTVYLQMNSLKPEDTAVYYCAADPSALVYYWRWLGYDYWGQGTQVTVSS”, the “polyreactivity (PSR sort gate)” value was “high polyreactivity”.

For “QVQLVESGGGLVQAGGSLRLSCAASGSTFTPNAMGWYRQAPGKERELVAAITTRGSSTYYADSVKGRFTISRDNAKNTVYLQMNSLKPEDTAVYYCNAGVTFRRYDYWGQGTQVTVSS”, the “polyreactivity (PSR sort gate)” value was “high polyreactivity”.

With “QVQLVESGGGLVQAGGSLRLSCAASGSTFTPYAIGWYRQAPGKERELVAAIRRGGSTNYADSVKGRFTISRDNAKNTVYLQMNSLKPEDTAVYYCAATKRRFVKFDYWGQGTQVTVSS” the “polyreactivity (PSR sort gate)” value was “low polyreactivity”.

For “QVQLVESGGGLVQAGGSLRLSCAASGSTFTPYAMGWYRQAPGKERELVAAISIRGGSTNYADSVKGRFTISRDNAKNTVYLQMNSLKPEDTAVYYCNAGRLRYIFKSYDYWGQGTQVTVSS”, the “polyreactivity (PSR sort gate)” value was “high polyreactivity”.

With “QVQLVESGGGLVQAGGSLRLSCAASGSTFTPYAMGWYRQAPGKERELVAAISWSDDSTYYADSVKGRFTISRDIAKNTVYLQMNSLKPEDTAVYYCAASAYVDYGVYTYIMDYWGQGTQVTVSS” the “polyreactivity (PSR sort gate)” value was “high polyreactivity”.

With “QVQLVESGGGLVQAGGSLRLSCAASGSTFTQYAMGWYRQEPGKERELVAAITGSGGRTYYADSVKGRFTISRDNAKNTVYLQMNSLKPEDTAVYYCAARDKFGGYYHWGQGTQVTVSS” the “polyreactivity (PSR sort gate)” value was “high polyreactivity”.

With “QVQLVESGGGLVQAGGSLRLSCAASGSTFTRNAMGLYRQAPGKERELVAAITSGGSTNYADSVKGRFTISRDNAKNTVYLQMNSLKPEDTAVYYCNAESPLSYTRHDSWGQGTQVTVSS” the “polyreactivity (PSR sort gate)” value was “low polyreactivity”.

For “QVQLVESGGGLVQAGGSLRLSCAASGSTFTRNAMGWYRQAPGKERELVATISRSGGSTYYADSVKGRFTISRDNAKNTVYLQMNSLKPEDTAVYYCARPYQYYKFYSHDYWGQGTQVTVSS”, the “polyreactivity (PSR sort gate)” value was “high polyreactivity”.

With “QVQLVESGGGLVQAGGSLRLSCAASGSTFTRYAMGWYRQAPGKERELVAAISSGGSTYADSVKGRFTISRDNAKNTVYLQMNSLKPEDTAVYYCAARLYTYPKGKYWGQGTQVTVSS” the “polyreactivity (PSR sort gate)” value was “high polyreactivity”.

With “QVQLVESGGGLVQAGGSLRLSCAASGSTFTRYAMGWYRQAPGKERELVAGITGRGGSTYYADSVKGRFTISRDNAKNTVYFQMNSLKPEDTAVYYCNKRRRGVTTYDYWGQGTQVTVSS” the “polyreactivity (PSR sort gate)” value was “high polyreactivity”.

For “QVQLVESGGGLVQAGGSLRLSCAASGSTFTRYGMGWYRQAPGKEREMVAAITTSGSSTYYADSVKGRFTISRDNAKNTVYLQMNSLKPEDTAVYYCAADWSSWGFDYWGQGTQVNVSS”, the “polyreactivity (PSR sort gate)” value was “low polyreactivity”.
